These results are taken from patent publication US7470669B2, “Isolated polypeptide comprising a leptin fragment” (Serono Genetics Institute, S.A., priority 1999, dated 2008).

One experiment concerns the target T1, LSR α (Homo sapiens, UniProt Q86X29).
T1 construct: The full-length LSR α, α′, and β clones were reconstructed in pTracer-CMV2 vector; expressed in transfected cells; host or cells: CHO-K1, transient (Fugene), pTracer-CMV2
T1 sequence (Q86X29 1-649): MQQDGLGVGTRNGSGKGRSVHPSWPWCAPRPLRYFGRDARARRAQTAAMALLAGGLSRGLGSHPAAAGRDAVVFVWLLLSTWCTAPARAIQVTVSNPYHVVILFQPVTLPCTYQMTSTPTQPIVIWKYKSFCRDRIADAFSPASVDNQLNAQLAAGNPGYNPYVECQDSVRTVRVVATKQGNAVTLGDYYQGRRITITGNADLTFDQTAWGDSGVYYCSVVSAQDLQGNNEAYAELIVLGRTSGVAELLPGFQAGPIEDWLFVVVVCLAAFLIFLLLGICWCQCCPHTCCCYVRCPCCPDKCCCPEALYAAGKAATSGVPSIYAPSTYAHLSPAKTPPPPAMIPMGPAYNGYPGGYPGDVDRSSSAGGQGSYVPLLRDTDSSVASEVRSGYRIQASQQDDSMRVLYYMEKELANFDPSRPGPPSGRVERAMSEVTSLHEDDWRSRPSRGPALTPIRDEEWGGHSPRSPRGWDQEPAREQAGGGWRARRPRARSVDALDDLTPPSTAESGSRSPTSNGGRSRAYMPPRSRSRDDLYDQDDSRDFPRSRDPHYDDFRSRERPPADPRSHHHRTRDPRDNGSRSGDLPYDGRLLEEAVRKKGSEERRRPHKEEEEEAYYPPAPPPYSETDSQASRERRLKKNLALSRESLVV
The experiment can be described thus: 125I-leptin binding in CHO-K1 cells transiently transfected with LSR α. In kind it is cell-based. The conditions noted are these: transient transfection with LSR α plasmid; 10 ng/mL 125I-leptin. The procedure: FIGS. 3A, 3B, 3C, and 3D show the effect of LSR subunit transfection on leptin binding and degradation in CHO-K1 cells. For FIG. 3A, CHO-K1 cells were transfected with increasing concentrations of the α, (□), α′ (▪) or β (◯) LSR plasmid, or vector alone (●) using Fugene transfection reagent. After 48 h, the cells were washed once in PBS and incubated at 37° C. for 2 h with 10 ng/mL of ^125I-leptin in DMEM containing 0.2% (w/v) BSA, 2 mM CaCl2 and 5 mM HEPES, pH 7.4 (Buffer A). The monolayers were washed and lysed with 0.1 N NaOH containing 0.24 mM EDTA, and the lysates were counted. The results are shown as the amount of cell-associated ^125I-leptin. For FIG. 3B, lysates were prepared from CHO-K1 wild type, stable transfectants of vector or LSR α′ subunit, and PLC, and separated on a 10% SDS-polyacrylamide gel under denaturing and reduced conditions. After transfer to nitrocellulose, Western blots were performed using anti-LSR 170 antibody (can also be done with the human equivalent, 93A). […] For FIGS. 3C and 3D, confluent monolayers of stable-transfected cell lines expressing LSR α′ subunit (▪) or vector alone (●) were washed once in PBS and incubated at 37° C. for 2 h with increasing concentrations of ^125I-leptin in Buffer A. The amount of cell-associated (FIG. 3C) and degraded (FIG. 3D) ^125I-leptin was then measured as described herein. […]

A further experiment deals with lipase. Kind of experiment: Postheparin lipolytic activity in db^Pas/db^Pas mice. The class given is in vivo, mouse. The conditions noted are these: 50 μg/animal, t=2 h after test meal. As for the experimental part: FIG. 12 contains a Table that presents results showing the effect of test meal with and without leptin injection on postheparin lipolytic activity in db^Pas/db^Pas mice. Animals were gavaged with the test-meal and injected at the same time with 50 μg leptin or physiological saline as described previously (t=0 h). After 1 h, the mice were injected with heparin and blood samples were taken at the peak of postprandial triglyceridemia (t=2 h). Lipase activity was measured in the postheparin plasma as described in the Examples section herein, and is reported here as the mean±SEM (n=3 animals for each condition; ns=not significant).
Mice were gavage-fed and injected with leptin or control solutions as described above. At t=1 h, the mice were injected subcutaneously with heparin (100 IU/kg body weight). At t=2 h, the animals were bled and the plasma was immediately separated by centrifugation. Lipase activity was determined according to Iverius and Brunzell (1985) using 20% Lipoven (Fresenius France Pharma, Louviers, France) as the source of TG. The assay was performed using 25 μL postheparin plasma in 0.15 M NaCl (200 μL total volume), and in the presence of 10 μL heat-inactivated (56° C., 30 min) human plasma as a source of apoC's. Before and at the end of the incubation, FFA concentrations were determined using an enzymatic kit.

Consider “leptin: plasma protein of 16 kDa produced by adipocytes; recombinant human or mouse leptin, species depends on the experiment”, for which the “Leptin binding to CHO-K1 cells” value with LSR α is listed as “remained at levels similar to those seen with the vector alone”. Further, the “lipase activity released in serum after heparin injections” value with lipase is reported as “did not significantly modify lipase activity”.
